Where two headings read alike, the source gives them in different places.
Legend:
[1] = molecular target: SARS-CoV-2 Spike RBD (SARS-CoV-2), P0DTC2
[2] = molecular target: SARS-CoV-2 Spike RBD (SARS-CoV-2), P0DTC2; remark: listed apart in the source
[3] = molecular target: SARS-CoV-2 Spike RBD (SARS-CoV-2), P0DTC2; remark: listed apart in the source
[4] = molecular target: SARS-CoV-2 Spike RBD (SARS-CoV-2), P0DTC2; remark: listed apart in the source
[5] = molecular target: SARS-CoV-2 Spike RBD (SARS-CoV-2), P0DTC2; remark: listed apart in the source
[6] = molecular target: SARS-CoV-2 Spike RBD (SARS-CoV-2), P0DTC2; remark: listed apart in the source
[7] = molecular target: SARS-CoV-2 Spike RBD (SARS-CoV-2), P0DTC2; remark: listed apart in the source
[8] = molecular target: SARS-CoV-2 Spike RBD (SARS-CoV-2), P0DTC2; remark: listed apart in the source
[9] = molecular target: SARS-CoV-2 Spike RBD (SARS-CoV-2), P0DTC2; remark: listed apart in the source
[10] = molecular target: SARS-CoV-2 Spike RBD (SARS-CoV-2), P0DTC2; remark: listed apart in the source
[11] = molecular target: SARS-CoV-2 Spike RBD (SARS-CoV-2), P0DTC2; remark: listed apart in the source
[12] = molecular target: SARS-CoV-2 Spike RBD (SARS-CoV-2), P0DTC2; remark: listed apart in the source
[13] = molecular target: SARS-CoV-2 Spike RBD (SARS-CoV-2), P0DTC2; remark: listed apart in the source
[14] = molecular target: SARS-CoV-2 Spike RBD (SARS-CoV-2), P0DTC2; remark: listed apart in the source
[15] = molecular target: SARS-CoV-2 Spike RBD (SARS-CoV-2), P0DTC2; remark: listed apart in the source
[16] = molecular target: SARS-CoV-2 Spike RBD (SARS-CoV-2), P0DTC2; remark: listed apart in the source
[17] = molecular target: SARS-CoV-2 Spike RBD (SARS-CoV-2), P0DTC2; remark: listed apart in the source
[18] = molecular target: SARS-CoV-2 Spike RBD (SARS-CoV-2), P0DTC2; remark: listed apart in the source
[19] = molecular target: SARS-CoV-2 Spike RBD (SARS-CoV-2), P0DTC2; remark: listed apart in the source
[20] = molecular target: SARS-CoV-2 Spike RBD (SARS-CoV-2), P0DTC2; remark: listed apart in the source
[21] = molecular target: SARS-CoV-2 Spike RBD (SARS-CoV-2), P0DTC2; remark: listed apart in the source
[22] = molecular target: SARS-CoV-2 Spike RBD (SARS-CoV-2), P0DTC2; remark: listed apart in the source
[23] = molecular target: SARS-CoV-2 Spike RBD (SARS-CoV-2), P0DTC2; remark: listed apart in the source
[24] = molecular target: SARS-CoV-2 Spike RBD (SARS-CoV-2), P0DTC2; remark: listed apart in the source
[25] = molecular target: SARS-CoV-2 Spike RBD (SARS-CoV-2), P0DTC2; remark: listed apart in the source
[26] = molecular target: SARS-CoV-2 Spike RBD (SARS-CoV-2), P0DTC2; remark: listed apart in the source
[27] = molecular target: SARS-CoV-2 Spike RBD (SARS-CoV-2), P0DTC2; remark: listed apart in the source

B1: R2G3-His (peptide)
chain: GGGGAMGSEGDKTCPDGYEHTCGCIGGCGCKRSACIGALCCQASLGGWLSDGETYTGGGGSGGGGSHHHHHH
modifications: not checked
Q: What does the source list for B1?
A: Adjusted Binding Rate [1]: 8.31 nm/s; Adjusted Binding Rate [2]: 4.4 nm/s; Adjusted Binding Rate [3]: 32.8 nm/s; Adjusted Binding Rate [4]: 12.5 nm/s; Adjusted Binding Rate [5]: 5.39 nm/s; Adjusted Binding Rate [6]: 6.36 nm/s; Adjusted Binding Rate [7]: 3.4 nm/s; Adjusted Binding Rate [8]: 2.88 nm/s; Adjusted Binding Rate [9]: 14.3 nm/s; Adjusted Binding Rate [10]: 31.9 nm/s; Adjusted Binding Rate [11]: 34 nm/s; Adjusted Binding Rate [12]: 6.47 nm/s; Adjusted Binding Rate [13]: 1.5 nm/s; Adjusted Binding Rate [14]: 7.41 nm/s; Adjusted Binding Rate [15]: 2.1 nm/s; Adjusted Binding Rate [16]: 34.6 nm/s; Adjusted Binding Rate [17]: 7.24 nm/s; Adjusted Binding Rate [18]: 7.1 nm/s; Adjusted Binding Rate [19]: 19.4 nm/s; Adjusted Binding Rate [20]: 4.3 nm/s; Adjusted Binding Rate [21]: 5.39 nm/s; Adjusted Binding Rate [22]: 3.73 nm/s; Adjusted Binding Rate [23]: 7.34 nm/s; Adjusted Binding Rate [24]: 22 nm/s; Adjusted Binding Rate [25]: 2.44 nm/s; Adjusted Binding Rate [26]: 4.91 nm/s; Adjusted Binding Rate [27]: 3.35 nm/s
